Reference: US6017533
No end group written: not given here.

Tests used:
[1] = target: PACAP receptor in rat brain crude membrane (rat); assay: displacement of [^125 I]MAX from rat brain crude membranes
[2] = target: PACAP receptor in rat brain crude membrane (rat); assay: displacement of [^125 I]PACAP 27 from rat brain crude membranes
[3] = target: PACAP receptor in rat brain crude membrane (rat); assay: displacement of [^125 I]MAX and [^125 I]PACAP 27 from rat brain crude membranes; reference M65

Molecule | IC50 [1] | IC50 [2] | fold of IC50 against M65 [3]
M65 (SEQ ID NO: 3) (peptide) | 2.96 nM | 5.96 nM | 
FTDSYSRYRKQMAVKKYLAAVL-NH2 [PACAP 6-27 (SEQ ID NO: 7-NH2)] | 235 nM | 1030 nM | 

More lines, now with the values ahead:

IC50 [1] | IC50 [2] | fold of IC50 against M65 [3] | Molecule
8.35 nM | 39.1 nM | 6 to 10 times | FTDSYSRYRKQMAVKKYLAAVLGKRYKQRVKNK-NH2 [PACAP 6-38 (SEQ ID NO: 6-NH2)]
1.91 nM | 4.45 nM |  | HSDGIFTDSYSRYRKQMAVKKYLAAVLGKRYKQRVKNK-NH2 (ligand) [PACAP 38 (SEQ ID NO: 4-NH2)]
2.16 nM | 9.55 nM |  | HSDGIFTDSYSRYRKQMAVKKYLAAVL-NH2 (ligand) [PACAP 27 (SEQ ID NO: 5-NH2)]
